Source: CN114790245A

Target: 血浆激肽释放酶(plasma kallikrein,PK) (human) (UniProt P03952)
Assay: cell-based or functional assay

Chain of UniProt P03952 (P03952 20-638 limits assumed): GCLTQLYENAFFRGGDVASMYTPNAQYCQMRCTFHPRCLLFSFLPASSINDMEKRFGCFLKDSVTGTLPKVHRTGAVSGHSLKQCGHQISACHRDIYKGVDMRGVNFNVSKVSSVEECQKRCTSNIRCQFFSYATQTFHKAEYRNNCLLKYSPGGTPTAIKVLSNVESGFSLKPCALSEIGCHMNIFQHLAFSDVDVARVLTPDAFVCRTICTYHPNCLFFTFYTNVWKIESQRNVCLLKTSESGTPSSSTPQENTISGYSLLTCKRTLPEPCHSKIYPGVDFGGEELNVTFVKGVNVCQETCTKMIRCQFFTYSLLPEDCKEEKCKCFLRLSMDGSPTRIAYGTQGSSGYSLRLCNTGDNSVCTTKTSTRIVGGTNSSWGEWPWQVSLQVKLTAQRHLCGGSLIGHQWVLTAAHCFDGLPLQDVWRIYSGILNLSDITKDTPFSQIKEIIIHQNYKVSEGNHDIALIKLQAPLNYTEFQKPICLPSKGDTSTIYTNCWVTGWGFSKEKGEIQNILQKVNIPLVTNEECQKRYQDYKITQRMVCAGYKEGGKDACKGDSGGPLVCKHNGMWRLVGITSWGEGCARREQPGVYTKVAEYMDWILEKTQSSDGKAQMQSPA

IC50(nM), PK activity in human plasma activated with Factor XIIa (H-Pro-Phe-Arg-AMC): 1.17 nM
IC50(nM), PK enzyme activity on H-Pro-Phe-Arg-AMC (fluorescence): 0.99 nM
Substance: MHL(Lanadelumab) (antibody)
